Data on 1 molecule can be found in patent US20210221894A1 (DRAGONFLY THERAPEUTICS, published 2021).

The term Kd denotes the equilibrium constant for the complex coming apart. One may read the koff as a measure of how fast the partners let go of each other. As usually defined, the kon is the second-order rate constant of association.

Assay [1] deals with T1, recombinant His-tagged N-terminal domain of human DLL3 (human, UniProt Q9NYJ7 27-175, limits assumed).
T1 construct: also called DLL3 N-terminal domain
T1 sequence: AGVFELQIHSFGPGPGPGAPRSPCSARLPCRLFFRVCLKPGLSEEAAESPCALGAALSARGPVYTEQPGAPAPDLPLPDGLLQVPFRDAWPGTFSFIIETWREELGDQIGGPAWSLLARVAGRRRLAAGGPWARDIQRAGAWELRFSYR
Nature of the assay: SPR (Biacore 8K), 37 C, antibody captured on anti-mouse Fc. An excerpt: (§1) The binding kinetics of different anti-DLL3 antibodies to recombinant proteins of different domains of human DLL3 were studied by surface plasmon resonance (SPR) using a Biacore™ 8K instrument. These anti-DLL3 antibodies were produced from mouse hybridomas, and each included a heavy chain variable region and light chain variable region described herein. Briefly, antibodies recognizing human IgG Fc and antibodies recognizing mouse IgG Fc were immobilized on different channels of a Biacore™ 8K chip to allow simultaneous analysis of human and murine anti-DLL3 antibodies. Murine anti-DLL3 antibodies were captured on the anti-mouse Fc channel of the Biacore chip. The human anti-DLL3 antibody from Stemcentrx (San Francisco, Calif.) was used as a control and was captured onto anti-human Fc channel of the Biacore™ chip. Different concentrations of DLL3 ECD, DLL3 N-terminal domain, EGF2-6, EGF3-6, EGF4-6, or EGF5-6 domains of DLL3 were injected. Experiments were performed at 37° C. Biacore™ 8K evaluation software was used for all data analysis. To obtain kinetic rate constants double-referenced data were fit to a 1:1 interaction model using Biacore™ 8K Evaluation software (GE Healthcare, Marlborough, Mass.). The equilibrium binding constant KD was determined by the ratio of binding rate constants kd/kₐ. […]
For orientation: Surface plasmon resonance follows binding to a sensor surface in real time, without labels.

Assay [2] has as its target T2, recombinant His-tagged EGF5-6 domains of human DLL3 (human, UniProt Q9NYJ7 391-492, limits assumed).
T2 sequence: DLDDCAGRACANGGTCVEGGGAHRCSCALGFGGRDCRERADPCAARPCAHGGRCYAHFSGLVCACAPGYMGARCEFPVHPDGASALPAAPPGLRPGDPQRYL
The assay is described as above.
Source text: as §1

For assay [3], the target named is T3, extracellular domain (ECD) of human DLL3 (AdipoGen Life Sciences) (human, UniProt Q9NYJ7 27-492).
T3 construct: Bought and further purified by size exclusion chromatography; also called hDLL3 ECD; DLL3 ECD
T3 sequence: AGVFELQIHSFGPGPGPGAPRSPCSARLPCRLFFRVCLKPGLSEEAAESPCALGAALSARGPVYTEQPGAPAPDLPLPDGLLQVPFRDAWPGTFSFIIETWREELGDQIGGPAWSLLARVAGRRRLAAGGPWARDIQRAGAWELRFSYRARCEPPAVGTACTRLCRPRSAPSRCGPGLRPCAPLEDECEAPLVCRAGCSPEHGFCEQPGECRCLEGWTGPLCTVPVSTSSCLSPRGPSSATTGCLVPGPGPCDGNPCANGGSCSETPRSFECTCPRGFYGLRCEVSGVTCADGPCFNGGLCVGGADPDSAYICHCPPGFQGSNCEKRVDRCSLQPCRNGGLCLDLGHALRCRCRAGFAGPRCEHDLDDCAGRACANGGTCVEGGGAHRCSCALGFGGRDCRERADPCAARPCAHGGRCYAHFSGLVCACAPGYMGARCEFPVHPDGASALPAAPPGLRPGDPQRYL
Nature of the assay: SPR (Biacore 8K), 37 C, antibody captured on anti-mouse Fc; same values as in Table 36. An excerpt: (§2) The binding kinetics of different anti-DLL3 antibodies to recombinant proteins of different domains of human DLL3 were studied by surface plasmon resonance (SPR) using a Biacore™ 8K instrument. These anti-DLL3 antibodies were produced from mouse hybridomas, and each included a heavy chain variable region and light chain variable region described herein. Briefly, antibodies recognizing human IgG Fc and antibodies recognizing mouse IgG Fc were immobilized on different channels of a Biacore™ 8K chip to allow simultaneous analysis of human and murine anti-DLL3 antibodies. Murine anti-DLL3 antibodies were captured on the anti-mouse Fc channel of the Biacore chip. The human anti-DLL3 antibody from Stemcentrx (San Francisco, Calif.) was used as a control and was captured onto anti-human Fc channel of the Biacore™ chip. Different concentrations of DLL3 ECD, DLL3 N-terminal domain, EGF2-6, EGF3-6, EGF4-6, or EGF5-6 domains of DLL3 were injected. Experiments were performed at 37° C. Biacore™ 8K evaluation software was used for all data analysis. To obtain kinetic rate constants double-referenced data were fit to a 1:1 interaction model using Biacore™ 8K Evaluation software (GE Healthcare, Marlborough, Mass.). The equilibrium binding constant KD was determined by the ratio of binding rate constants kd/kₐ.
Table 36 lists the calculated binding kinetics (KD). […]

The target in assay [4] is T4, recombinant His-tagged EGF2-6 domains of human DLL3 (human, UniProt Q9NYJ7 274-492, limits assumed).
T4 sequence: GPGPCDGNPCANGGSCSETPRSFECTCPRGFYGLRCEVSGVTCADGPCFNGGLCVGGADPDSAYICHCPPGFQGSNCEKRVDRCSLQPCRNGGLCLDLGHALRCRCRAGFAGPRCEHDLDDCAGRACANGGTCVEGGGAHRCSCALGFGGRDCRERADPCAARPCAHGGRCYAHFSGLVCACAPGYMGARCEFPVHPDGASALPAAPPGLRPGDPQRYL
Nature of the assay: SPR (Biacore 8K), 37 C, antibody captured on anti-mouse Fc, DLL3 domain construct injected, 1:1 fit.
Source text: as §2
(§3) The binding epitope on DLL3 by the anti-DLL3 antibody which included a heavy chain variable region and light chain variable region of clone 5E7 (see Table 2) was identified by SPR analysis at 37° C.

The target of assay [5] is T5, recombinant His-tagged EGF3-6 domains of human DLL3 (human, UniProt Q9NYJ7 312-492, limits assumed).
T5 sequence: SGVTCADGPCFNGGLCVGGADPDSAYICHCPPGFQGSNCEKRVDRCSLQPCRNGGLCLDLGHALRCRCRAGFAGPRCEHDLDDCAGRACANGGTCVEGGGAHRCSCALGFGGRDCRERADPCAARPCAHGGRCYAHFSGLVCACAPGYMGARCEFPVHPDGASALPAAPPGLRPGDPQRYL
The description is as above.
Source text: as §2, §3

The target in assay [6] is T6, recombinant His-tagged EGF4-6 domains of human DLL3 (human, UniProt Q9NYJ7 353-492, limits assumed).
T6 sequence: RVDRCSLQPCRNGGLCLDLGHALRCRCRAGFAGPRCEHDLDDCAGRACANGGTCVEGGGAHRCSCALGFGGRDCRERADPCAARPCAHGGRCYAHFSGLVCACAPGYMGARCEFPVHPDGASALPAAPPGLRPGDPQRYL
Described as above.
Source text: as §2, §3

B1: murine anti-DLL3 antibody clone 5E7 (antibody, V domains shown)
VH: EVQLQQSGAELVRPGASVKLSCTASGFNIKDDYIHWVKQWPEQGLEWIGWIDSENGDTEYASKFQGKATMTADTSSNTAYLQLSGLTSEDTAVYYCTTSSYYSYDLFVYWGQGTLVTVSA
VL: DVLMTQTPLTLSVPIGQPASISCKSSQSLLHSNGKTYLNWLLQRPGQSPKLLIYLVSKLESGVPDRFSGSGSGTDFTLKISRVEAEDLGVYYCLQTTHLYTFGGGTKLEIK
notes: Murine antibody produced from a mouse hybridoma, captured on anti-mouse Fc in SPR; also called m5E7; murine 5E7
In the case of B1, the binding result in assay [1] and in assay [2] was “no binding” throughout. Also, the dissociation constant (Kd) in assay [3] worked out at 203 pM; in assay [4] it was 669 pM; in assay [5], 184 pM; in assay [6] it was 1120 pM. For the same molecule, the off-rate (koff) in assay [3] worked out at 6.47e-05 s⁻¹; in assay [4] it was 0.000382 s⁻¹; in assay [5], 0.000264 s⁻¹; in assay [6] it was 0.00061 s⁻¹. For the same molecule, the on-rate (kon) worked out at 570000 M⁻¹ s⁻¹ in assay [4], 1.45e+06 M⁻¹ s⁻¹ in assay [5] and 546000 M⁻¹ s⁻¹ in assay [6].
